Measurements taken from IntAct's records for PubMed 25170080.

B1: Protein Nef (Human immunodeficiency virus type 1 group M subtype B (isolate HXB2) (HIV-1)), P04601 (parent)
chain: MGGKWSKSSVIGWPTVRERMRRAEPAADRVGAASRDLEKHGAITSSNTAATNAACAWLEAQEEEEVGFPVTPQVPLRPMTYKAAVDLSHFLKEKGGLEGLIHSQRRQDILDLWIYHTQGYFPDWQNYTPGPGVRYPLTFGWCYKLVPVEPDKIEEANKGENTSLLHPVSLHGMDDPEREVLEWRFDSRLAFHHVARELHPEYFKNC
partner: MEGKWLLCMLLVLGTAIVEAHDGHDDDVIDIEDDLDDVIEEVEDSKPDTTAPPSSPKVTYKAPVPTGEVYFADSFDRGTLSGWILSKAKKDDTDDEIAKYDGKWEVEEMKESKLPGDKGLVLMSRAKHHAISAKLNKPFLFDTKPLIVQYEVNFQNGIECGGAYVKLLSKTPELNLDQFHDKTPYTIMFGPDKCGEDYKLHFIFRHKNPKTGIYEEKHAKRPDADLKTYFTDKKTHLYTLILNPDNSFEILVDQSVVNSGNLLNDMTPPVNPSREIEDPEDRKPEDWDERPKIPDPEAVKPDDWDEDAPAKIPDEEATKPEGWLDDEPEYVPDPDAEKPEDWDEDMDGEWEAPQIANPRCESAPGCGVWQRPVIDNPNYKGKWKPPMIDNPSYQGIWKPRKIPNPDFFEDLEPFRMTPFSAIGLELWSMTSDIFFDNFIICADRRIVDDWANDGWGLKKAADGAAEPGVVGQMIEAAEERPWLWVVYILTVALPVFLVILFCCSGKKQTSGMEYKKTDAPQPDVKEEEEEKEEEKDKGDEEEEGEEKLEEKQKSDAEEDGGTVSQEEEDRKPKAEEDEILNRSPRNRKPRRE

Variants of: B1
Conditions: with calx_human CANX

Variant | effect of a mutation on the interaction
G2A | disrupting interaction strength
